{"source": "paper PMC6401464", "about": "(Journal of Virology, 2019)", "binders": {"B1": {"name": "Nano-7 (VHH)", "VHH": "QVQLQESGGGLVQAGGSLRLSCAVSGRTFSNYYSGWFRQAPGKEREFLASIRWSDSTTNYADSVKGRFTISRDTAKNTVYLQMNSLKLEDTAVYHCAARRLATYDYWGQGTQVTVSS", "notes": "also called Nanobody 7"}, "B2": {"name": "Nano-62 (VHH)", "VHH": "QVQLQESGGGLVMTGGSLRLSCAVSGRTIDVSVMAWFRQAPGKEREFVSGMRWSGMTTYSADSVKDRFTISRDKTKNTVYLQMNSLKPEDTAVYYCAARSRFIVGVPQARDLYDYWGQGTQVTVSS", "notes": "also called Nanobody 62"}, "B3": {"name": "GI.1 P domain (Norwalk virus) (domain or fragment)", "chain": "EQKTRPFTLPNLPLSSLSNSRAPLPISSMGISPDNVQSVQFQNGRCTLDGRLVGTTPVSLSHVAKIRGTSNGTVINLTELDGTPFHPFEGPAPIGFPDLGGCDWHINMTQFGHSSQTQYDVDTTPDTFVPHLGSIQANGIGSGNYVGVLSWISPPSHPSGSQVDLWKIPNYGSSITEATHLAPSVYPPGFGEVLVFFMSKMPGPGAYNLPCLLPQEYISHLASEQAPTVGEAALLHYVDPDTGRNLGEFKAYPDGFLTCVPNGASSGPQQLPINGVFVFVSWVSRFYQLKPVGT", "notes": "also called GI.1 capsid-protruding (P) domain; GI P domain"}, "B4": {"name": "Nano-94 (VHH)", "VHH": "QVQLQESGGGLVQAGGSLRLSCAASGRMFSINSMGWYRQAPGKERELVATISEAGTTTYADSVRGRFTIARDNAKNTVYLQMNSLNPEDTAVYYCNAYIQLDSTIWFRAYWGQGTQVTVSS", "notes": "also called Nanobody 94"}}, "key": {"[1]": {"target": "T1, GI.1 P domain (Norwalk virus) (Norwalk virus (human norovirus GI.1), UniProt Q83884)", "T1 construct": "also called GI.1 capsid-protruding (P) domain; GI P domain", "experiment": "ELISA; direct ELISA; P domain or VLPs coated on MaxiSorp plates, serially diluted Nanobodies (1:1 in PBS, starting at 100 μg/ml) for 1 h at 37°C, detected with HRP-conjugated anti-polyhistidine antibody; cutoff OD490 0.15", "settings": "both partners purified"}, "[2]": {"target": "T1, GI.1 P domain (Norwalk virus)", "experiment": "ITC; Nano-7 (150 μM) injected in 0.5 μl aliquots into GI.1 P domain (15 μM), PBS, 35°C, one-site binding model", "settings": "both partners purified"}, "[3]": {"target": "T1, GI.1 P domain (Norwalk virus)", "experiment": "ITC; Nano-62 (150 μM) injected in 2 μl aliquots into GI.1 P domain (15 μM), PBS, 30°C, one-site binding model", "settings": "both partners purified"}, "crystal structure": {"target": "the molecule itself", "experiment": "crystal structure"}, "[4]": {"target": "T1, GI.1 P domain (Norwalk virus)", "experiment": "ITC; Nano-94 (150 μM) injected in 2 μl aliquots into GI.1 P domain (15 μM), PBS, 25°C, one-site binding model", "settings": "both partners purified"}}, "data": [{"binder": "B1", "values": [{"measurement": "detection level (ELISA, cutoff OD490 0.15)", "setting": "[1]", "value": 0.2, "unit": "µg/mL"}, {"measurement": "Kd", "setting": "[2]", "value": 0.163, "unit": "nM"}, {"measurement": "stoichiometry N", "setting": "[2]", "value": "~1"}]}, {"binder": "B2", "values": [{"measurement": "detection level (ELISA, cutoff OD490 0.15)", "setting": "[1]", "value": 0.1, "unit": "µg/mL"}, {"measurement": "Kd", "setting": "[3]", "value": 4.58, "unit": "nM"}, {"measurement": "stoichiometry N", "setting": "[3]", "value": "~1"}]}, {"binder": "B3", "values": [{"measurement": "binding result", "setting": "crystal structure", "value": "binds"}]}, {"binder": "B4", "values": [{"measurement": "detection level (ELISA, cutoff OD490 0.15)", "setting": "[1]", "value": 0.1, "unit": "µg/mL"}, {"measurement": "Kd", "setting": "[4]", "value": 43.4, "unit": "nM"}, {"measurement": "stoichiometry N", "setting": "[4]", "value": "~1"}]}]}
